# Data: the DeepSol protein solubility set
# Test: soluble on expression in E. coli; label from the status in PepcDB or PDB records
row,Sequence,soluble on expression in E. coli
1,MKLATLKNNTRDGQLVVVNRALDKAVVVSHIAATLQAALDNWSEISPKLAEVYQSLNNNEITDTLVFEQAACESPLPRAYQWADGSAYVNHVELVRKARNAEMPATFWTDPLMYQGGSDAFIGPRDDISIASEEYGIDFESEVAVITDDVPMGISVEQAANHIKLLMLVNDVSLRNLIPGELAKGFGFFASKPSSAFSPVAVTPDELGDAWDGKKLHLPLTTHLNETLFGQPNCGVDMTFDFPTIVAHAAKTRPLSTGCVIGSGTISNYDRSVGSSCLAEIRMLEIIADGKPTTPFMSFGDTVRIEMFDNEGASIFGSIDQKVVEYKAQ,not soluble
2,MTQDPHQTADILIIGGGLSGSMLAAQLLRRPGQRRILIIETRSELGRGEAYSATEPGHTLNGNAARMSVDPDNAHDLTEWLTGYLAEGGWPEAAEQKIPVAELFPPRGVFGLYVQQRLREAQVVGEGFGSTVGHVRAEAVDVQVSEQGVSVTLADGRELRGSQAVLATGMYAASRTPQRESNALNAASLDPWDVSVMQQLDPQTRVLIIGSGLTMVDALVSLEKAGHRGPIQVFSRHGLLPHVRRQPPEWSDFLAQDPSIRSTRQLVRKVREQCELAIESGIDWQAPLDTVRANVGRLWNQATDTQRRQFVRHVRPWWESHHHRSPPPSAALLARLVKQGRLSIEAASLQGVASLPSGQVQISVRRRGEHEPTHILGDALINSTGIEYDWRRVDRPLPRQLLARGLIQPGPLALGIAAAHDGAVLDAQGQRSAHLFAMGPPLRGMWWESTAVTDVAIQAKALAMRLALEHHHHHH,soluble
3,MMYPYVRLFMEMRRARRLDPLPVLGTHRSSHRCLPWDLAPWRELNNGRTLTLFDLGRAPLLVRTGMQRICSEKGWGMTVAGSSVRYRRRVVLMERLEMVSRCLGWDGRFFYMEQSLWRKGDCTSHMLLRAATTTGSGIVPPAEVAAALGAGESPPLPDWAQAWIEADALRPWPPAALEHHHHHH,not soluble
4,MGSDKIHHHHHHVPLNSPLQLSLPVHLPDDETFNSYYPAAGNDELIQKLRANAEGQGEAAIYLWGPVKSGRTHLMHAACAHANEVERRSFYIPLGIHASISTALLEGLEQLDLVCIDDVDAIAGHPVWEEAIFDLYNRVAEHKNCALVVSGSSSPADAGFLLPDLVSRMQWGLNYQLQPMADDEKLAALQRRAAMRGLQLPEDVGRFLLNRMARDLRTLFDVLDKLDKASLVHQRKLTIPFAKEMLHL,not soluble
5,MQRHERIRFFITEQCRNLDPTYRNYMYPKQILLGDVPLPLLPNSSLTFRVNSAEKICFRIRLSIDDSQEPLNIGIPLSQVESVSIKDHSAKHPEPALLFLLKKGALERFIQVCNPLLGELHTYHGRKRKMLTYLTVILGMDPHLEQPNPVYCRVSLMANKFTFPFGTAKKILLKDLPIMWQEVLDKQYDRRLKTGIHHDRERMAEMDDEAWDWLMSFLNVKWDKCPSGGRWFVRDKDEILQSNEKLHHKMIYWLNQ,not soluble
6,MPETEEISKGLEDVNIKWTRLTTIDGNKGILRYGGYSVEDIIASGAQDEEIQYLFLYGNLPTEQELRKYKETVQKGYKIPDFVINAIRQLPRESDAVAMQMAAVAAMAASETKFKWNKDTDRDVAAEMIGRMSAITVNVYRHIMNMPAELPKPSDSYAESFLNAAFGRKATKEEIDAMNTALILYTDHEVPASTTAGLVAVSTLSDMYSGITAALAALKGPLHGGAAEAAIAQFDEIKDPAMVEKWFNDNIINGKKRLMGFGHRVYKTYDPRAKIFKGIAEKLSSKKPEVHKVYEIATKLEDFGIKAFGSKGIYPNTDYFSGIVYMSIGFPLRNNIYTALFALSRVTGWQAHFIEYVEEQQRLIRPRAVYVGPAERKYVPIAERK,soluble
7,MSLVKIKEVAMNIKINEIKMTPPTAFTPGQVIEEQEVISPSMLALQELQETTGAALYETMEEIGMALSGKLRENYKFTDAEKLERRQQALLRLIKQIQEDNGATLRPLTEENSDPDLQNAYQIIALAMALTAGGLSKKKKRDLQSQLDTLTAEEGWELAVFSLLELGEVDTATLSSLKRFMQQAIDNDEMPLSQWFRRVADWPDRCERVRILLRAVAFELSICIEPSEQSRLAAALVRLRRLLLFLGLEKECQREEWICQLPPNTLLPLLLDIICERWLFSDWLLDRLTAIVSSSKMFNRLLQQLDAQFMLIPDNCFNDEDQREQILETLREVKINQVLFEGHHHHHH,soluble
8,MSELSFAQLLEESFAATPRLGDVVKGTVVAIQKGYVIVDTGFKSESSIPAEEFINAQGELEVQIGDQVDVVLKAVEDGFGETVVSRGDAKRNEAWIALEKAFEEQATVIGFVNGKVKGGFTVELNGVRAFLPGSLVDTRPVRDSLNLEGKELEFKVIKLDQKRNNVVVSRRAVIESENSQDRDEVLANLVEGSVITGTVKNLTDYGAFVDLGGVDGLLHITDMAWKRVKHPSEVVAVGQEVTVKVLKFDKEKTRVSLGLKQLGQDPWAAIAHNHPVNSKLTGKVTNLTDYGCFVEILDGVEGLVHVSEMDWTNKNIHPSKVVSVGDVVEVMVLEVDEERRRISLGLKQCKANPWEHFAATHNKNDKVTGKIKSITDFGIFIGLEGGIDGLVHLSDISWNVTGEEAVRNYKKGDEVEAVVLQVDAAKERISLGIKQLESDPFTNFVDSTKKGAILTGKVVDVDTKGVKVELEGGVEAFIRANEATRERVEDITTVISVGDSIEAKYTGIDRKSRLVNLSVRAKDEAEESAALAQVNKQDVEMPNAMTAAFQAAKGELEHHHHHH,soluble
9,MGHHHHHHSHMNGEAICSALPTIPYHKLADLRYLSRGASGTVSSARHADWRVQVAVKHLHIHTPLLDSERKDVLREAEILHKARFSYILPILGICNEPEFLGIVTEYMPNGSLNELLHRKTEYPDVAWPLRFRILHEIALGVNYLHNMTPPLLHHDLKTQNILLDNEFHVKIADFGLSKWRMMSLSQS,not soluble
10,MEKHLLISKGCKGWGGPLTITPGQGKKIAYITGGIRPPVVDRLSELTGWPSIDVFKNGEPPAEEIGLMVIDCGGTLRCGLYPKRGIPTINLHPTGKSGPLAEFIHEGIYVSGVTPACIEMVWPQGEGGKLGIVADDLTGATTVGVLLARSGLKTAAFFDTESFARNEVEYPAMVVSSDSRPLPKAEAQHKVSAAVKQLQARGAHYFTKRIDTTLRGGIGFEIDAMLEQLPQETVAVVVPAMPQSRRILVGGYSVIDSVALSRTDVARDVRTPVTESWVPGLLAAQTHHQVGHIALTSVMKGEGQIQQDLQEQQQRGVRVIVVDAITVDDVDAIAGAVVALNWNVLTVDPGPFTERLAVRRGLMREARSSAPASLTADGQRGSILIVAGSATPVTKKQLQYLIANDARVCHIPVDAELLVDRKNAAEIEVNRVVQHARQCVPAQHNALFVFESALTGRLLNLQEEEQRFGLAHGEAAQNINHGLGSIVREVLNCASGEIKGLYMTGGDTMVNVLKELGATGIEMIDYVIPQTDMVRIIGGDYAGLICVGKGGLTGPEDIISIIVDRIYQEAQ,not soluble
11,MSLDDLLKEVLKDKRLLEVLRHLKRANVDYGKSIMLNTKIPLTEVLDVLDKLESLGLIERVTGATLKNTEAKFKLSQEVHKHHTYYRLTRDGDHLLRRLDEKDIIDAYAEIVKDDEVGLKLLYYAEELHSDHALTYSKLLRKPLEEITPKIEELERMGLMEEKNSKVIKFRERRAKPEGHHHHHH,not soluble
12,DTHFPICIFCCGCCHRSKCGMCCKT,soluble
13,MSGNIGANPAIIKLSWIEAAVDAHKTLNFEPSGRKRIGFDVADSGTDKCANVYRHGSVVFWADEWKAKEDELLKSCQRTYQAALEREADIVYDSIGVGASAGAKFSEINADRKSENAYARRVNYQRFNAGAGVHEPDDEYNGIPNKDFFANLKAQAWWLTVSEIRLTPLTTENSILWMS,not soluble
14,MIRIGVLISGSGTNLQAILDGCREGRIPGRVAVVISDRADAYGLERARRAGVDALHMDPAAYPSRTAFDAALAERLQAYGVDLVCLAGYMRLVRGPMLTAFPNRILNIHPSLLPAFPGLEAQRQALEHGVKVAGCTVHFVTAGVDEGPIILQAAVPVLEGDTVEDLRRRILAEEHRIYPEAIRLFAEGRLVIEGRRVRILDRAEAPRG,soluble
15,MKKTPLYEAHLRLGARMVDFAGYLLPLQYTSIVEEHLAVRRAVGVFDVSHMGEFLVRGKEALAFLQWATANDAGKLKVGRAQYSMLPNERGGVVDDIYLYRLGEEEYLMVVNAANIAKDLAHLQALAKGFRVELEDASERTALLALQGPKAASLLQGLTDLDLSQKRKNDVFPARVAGRPARLARTGYTGEDGFELFLAPEDAEPVFLALVEAGAKPAGLGARDSLRLEAGFPLYGHELTEETNPLCTPWAWVVKKEKAFLGKEAMLAQACRERLVGLVLEGGIPREGYRVLSGGRPVGRVTSGGYSPLLQRGIALAYVEEGAEGPFQVEVRGRAVPAALSPLPFVPLK,soluble
16,MGHHHHHHSHIAFLGPKGSYSHLAARQYAARHFEQFIESGCAKFADIFNQVETGQADYAVVPIENTSSGAINDVYDLLQHTSLSIVGEMTLTIDHCLLVSGTTDLSTINTVYSHPQPFQQCSKFLNRYPHWKIEYTESTSAAMEKVAQAKSPHVAALGSEAGGTLYGLQVLERIEANQRQNFTRFVVLARKAI,soluble
17,MTAPLPLDWTFPYVSQRMPALGENMVCTEQPLANQAAMRMLAAGGNAVDAAIAAAITMTVVGPCMNGIGGDLFAIIWDGRQLHGLNASGRAPQAWTREYFSRHDAMPARGWDAVTVPGAVSGWVALSRKFGKLDFARLFEPALHYARHGFLVTPITARQWADQAEPIMQGPGFRDAFAPNGRTPQPGERFICPGQADTLQDIADTHGESFYRGALAARIAAFARETGGALTKADLAAHQADWVDPIGAQYGELTLHEIGPSGQGIGALMALGMLDGLSGKLGQPDSTDFYHYQIEAMKLAFADINRYVADPASMREVSAEMLLDRAYLATRAGAIDPAEARYPGPGKPHNGGTTYLTAADADGMMVSLIQSNFKGFGSGVVVPGTGIALHNRGWGFNLIEGHPNEVGPGKRPFHTIIPGFLMRDGEPLMSFGVMGGSLQAQGHVQVTVRTAAGQNPQAIVDAPRWRILEDNRTVMVEWNFPDAAVAGLRERGHAVTVAPRFSDEFGGSQAIMRIEGGYLGASDHRKDGQASALLEHHHHHH,not soluble
18,MGSDKIHHHHHHMKKPQSNFPHLQLKDGILKDQLYHAFREAILDGRLHPRMKLPSSRALSETMQISRNSVLQGFERLIDEGYLLTKPGSGTYVSDTIPDELIDIPNSSRESAQAFDSNVDINPQLIEMARLKAKGNTDHSHSMLNIGVGCVDLFPHQLWGRLLGRVWRQSRKTLGKSNHSAGYLPLREAISDYARSTRGLNCTPEQIIIVNGTQQAINLTAQVLLQQGDEVWLDEPGYDGALGAFLSQNMRVRPVSVDVEGTNIADAIQRYPAVKLAFTAPSHQFPLGGMLSLPRRLALLDWAAEQSKWILEDDYNGEFRYSARPIQALQGLDKYQRVIYAGTFSKMLLPELRLGFLVVPSKLVQAFQLAKHYADTHTAHLEQATLALFITEGHYARHVRRVRKACLARQTALIAAIEQYLPDKLSVQTSDSGIHLVCWLKGDLTEEKVINKCRQLSLGAQPLSRYCQAPYPRQAILLGYAAHTPDELRESIKKLAQIL,not soluble
19,GMTNHNNSGKKKVAILIEQAVEDTEFIIPCNGLKQAGFEVVVLGSRMNEKYKGKRGRLSTQADGTTTEAIASEFDAVVIPGGMAPDKMRRNPNTVRFVQEAMEQGKLVAAVCHGPQVLIEGDLLRGKQATGFIAISKDMMNAGADYLDEALVVDGNLITSREPGDLAIFTTAILSRLGYGGKDAALPDEKDRNAEWWKLADAWGGSTKGDIVRGLNTALGGERYSLEALEKYTEKESDVEAKALFQEMITNKQRHIEYLETYLTRLGEKPSLSANIANQYAKVKTALTGSDDIYQIRSALGDIQTGIGDIGNLCAMYTDPIATAIFKEIYKDLVKYEQRLVSLYRTRTNATVQPPKPTTGAAVSM,soluble
